Experimental findings from the nanobody polyreactivity screen of Harvey et al. (2022) are described below.

The nature of the data set: yeast display, Sf9 membrane polyspecificity reagent, FACS + sequencing; frameworks hold sequencing errors. The method in brief: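 Sorting gates, low and high (top ~1%), were placed on anti-HA fluorescence to track expression and on streptavidin fluorescence to track reagent binding. A clone's polyreactivity label is taken from the gate it came out of. The reagent was 10% biotinylated, detergent-solubilized Sf9 membrane, applied for 1 hour at 4 °C to galactose-induced yeast display cells.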
Turning to “QVQLQESGGGLVQAGGTLRLSCAANGNISYSNPMGWYRQPPGKEREFVASINPGSTTNYMDSVKGRFTISRDNAKNTVYLQMNSLKPEDTAVYYCNSVFFKSRQGQMYYWGQGSQVTVSS”, the “polyreactivity (PSR sort gate)” value is recorded as “high polyreactivity”. Under “QVQLVESGGGLVQAGGSLRLSCAASGYTFSHYDMGWYRQAPGKERELVAGITWSGGSTYYADSVKGRFTISRDNAKNTVYLQMNSLIPEDTSVYYCAAKYYWYYSYSGIPLFDYWGQGTQVTVSS” stands “low polyreactivity”; under “QVQLVESGGGLVQAGGSLRLSCAASGSIFAAYTMGWYRQAPGKERELVAAISVSTVSTYYADSVKGRFTISRDTAKNTVYLQMNRLKPEDTAVYYCNADATDSYPEKDEHDSWGQGTQVTVSS”, “low polyreactivity”; under “QVQLVESGGGLVQAGGSLRLSCAASGFIFRYYAMGLYRHAPGKERELVASISSGGSTDYADSVKGRFTISRDNAKNTVYLQMNSLKPEDTAVYYCAAGYRSLSLHVGSYRYYYRGQGTQVTVSS”, “high polyreactivity”.

Regarding “QVQLVESGGGLVQAGGSLRLSCAASGRIFDIYAMGWYRQAPGKERELVAAITRGGSTYADSVKGRFTISRDNAKNTVYLQMNSLKPEDTAVYYCAARPRLPRQIGGDGHLDDYWGQGTQVTVSS”, the “polyreactivity (PSR sort gate)” value is recorded as “high polyreactivity”. The value for “QVQLVESGGGLVQAGGSLRLSCAASGSTFPVNAKGWYRPAPGKERQLVATIRWTGGGTYYADSVKGRFTISRDNAKNTVYLQMNSLKPEDTAVYYCAADPPWEWSDYGYDYWGQGTQVTVSS” was “low polyreactivity”. Take “QVQLVESGGGLVQAGGSLRLSCAASGFTFGDYAMGWYRQAPGKERELVAVISSGGSTYYADSVKGRFTISRDNAKNTVYLQMNSLKPEDTAVYYCAKYVFRVWYHVFEVDYWGQGTQVTVSS”: the “polyreactivity (PSR sort gate)” value is given as “low polyreactivity”. The value for “QVQLVESGGGLVQAGGSLRLSCAASGRTFWKYVMGWYRQAPGKERELVAVISRPAGSTYYADSVKGRFTISRDNAKNTVYLQMNSLKPEDTAVYYCAKRPKNKPVLGDYDQWGQGTQVTVSS” was “low polyreactivity”; that for “QVQLVESGGGLVQAGGSLRLSCAASGSTFDVNAMGWYRQAPGKERELVAVITSGGSTNYADSVKGRFTISRDNAKNTVYLQMNRLKPEDTAVYYCAKDSRTLYDYWGQGTQVTVSS” was “low polyreactivity”; that for “QVQLVESGGGLLQAGGSLRLSCAASGSIFYINAKGWYRQAPGKERELVAAITSDGSTYYADSVKGRFTISRDYANYTVYLQLNSLKPEYSAVYYCAADLTSDQYLYYWYWFSSWGQGTQGTVSS” was “low polyreactivity”. Take “QVQLVESGGGLVQAGGSLRLSCAASGSIFELNAMGWYRQAPGKERELVAAITSSGSSTYYADSVKGRFTISRDNAKNTVYLQMNSLKPEDTAVYYGFRPHDYWGQGTQVTVSS”: the “polyreactivity (PSR sort gate)” value is given as “low polyreactivity”.

“QVQLVESGGGLVQAGGSLRLSCAASGSTFGYYAMGWYRQAPGKERELVAAISWSGTRTYYADSVKGRFTISRDNAKNTVYLQMNSLKPEDTAVYYCAVRISRPREYYYWGQGTQVTVSS”: the “polyreactivity (PSR sort gate)” value is “high polyreactivity”. The value for “QVQLVESGGGLVQAGGSLRLSCAASGSTLFYAMGWYRQAPGKERELVAAISWSGGSTRYADSVKGRFTISRDNAKNTVYLQMNSLKPEDTAVYYCNTYTKHTGYYWKYDYWGQGTQVTVSS” was “low polyreactivity”; that for “QVQLVESGGGLVQAGGSLRLSCAASGRTFFHYAMGWYRQAPRKERELVAAISSGGGTYADSVKGRFTISRDNAKNTVYLQMNSLKPEDTAVYYCNADTDSAKSPAYYYWGQGTQVTVSS” was “low polyreactivity”; that for “QVQLVESGGGLVQAGGSLRLSCAASGSIFGYNTMGWYRQAPGKERELVAAISRGGSTNYADSVKGRFTISRDNAKNTVYLQMNSLKPEDTAVYYCAKRRWRQTTYSKGYDYWGQGTQVTVSS” was “high polyreactivity”. For “QVQLVESGGGLVQAGGSLRLSCAASGRIFAYNAMGWYRQAPGKERELVAAIDWSGGRTYYADSVKGRFTISRDNEKNTVYLQMNSLKPEDTAVYYCATDVNSYGYYYWGQGTQVTVSS”, the “polyreactivity (PSR sort gate)” value is given as “high polyreactivity”.

“QVQLVESGGGLVQAGGSLRLSCAASGSTFVPNTMGWYRQAPGKERELVAAITYSGGSTYYADSVKGRFTISRDNAKNTVYLQMNSLKPEDTAVYYCAAEGTTWYYDMDYWGQGTQVTVSS”: the “polyreactivity (PSR sort gate)” value is on record as “low polyreactivity”. Turning to “QVQLVESGGGLVQAGGSLRLSCAASGRIFYIYAKGWYRPAPGKERELVAASTNGGSTNYAHSVKGRFTISRDNAKNTVYLQMNSLKPEDTEVYYCATDYVGYSFGMYYWGEGTQVTVSS”, the “polyreactivity (PSR sort gate)” value is given as “low polyreactivity”.

Turning to “QVQLVESGGGLVQAGGSLRLSSASSGRIFPDNTMGWYRQAPGKERELVAVITYSGGSTYYADSVKGRFTISRDNAKNTVYLQMNSLKPDDTAVYYCAARDYYIWFAEVDYWGQGTQVTVSS”, the “polyreactivity (PSR sort gate)” value is reported as “low polyreactivity”.

For the sequence “QVQLVESGGGLVQAGGSLRLSCAASGRTFGRYAMGWYRQAPGKERELVAAITRSGGSTNYADSVKGRFTISRDNAKNTVYLQMNSLKPEDTAVYYCARRGYSVRTPEGYYWGQGTQVTVSS”, the “polyreactivity (PSR sort gate)” value is given as “high polyreactivity”.

For “QVQLQGSGGGLVQAGGSLRLSCAASAYIFQNHPMGCNRQAPGKERELVAGIDNGTSTNYADSVNGRFTISRDNAKNTVYLQMNSLKPEDTAVYYCAAAGQADDTLGYWGQGTQVTVSS”, the “polyreactivity (PSR sort gate)” value is recorded as “low polyreactivity”. Under “LVQLVESGGGLLQAGGSPRLSCAASGFNFRGYAMGWYRQAPRKERELVAAINSGGSTNYADSVKGRFTISRDNAKNTVYLQMNSLNPEDTAVSYCAARVKTSYRYLRTYNYWGQGTQVTVSS” stands “high polyreactivity”; under “QVQLVESGGGLVQAGGSLRLSCAASGRIFGQNAMGWYRQAPGKERELVAAITGSGGRTYYADSVKGRFTISRDNAKNTVYLQMNSQKPEDTAVYYCAVRVTSYYRTMDYWGQGTQVTVSS”, “low polyreactivity”; under “QVHRGETGGGLVQAGGSLRLSCSASGLSFPHYAMGWYRQAPGKERDLVADINLSGGSNTYYADSVKGRFTISRDNAKNTVYLMMNSLKPEDTPVYDCNAVSWENWYHIMDYWGQGTQVTVSS”, “high polyreactivity”. Regarding “QVQLVESGGGLVQAGGSLRLSCAASGSTFRFYAMGWYRQAPGKERELVAVISFNDGSTYYADSVKGRFTISRDNAKNTVYLQMNSLKPEDTAVYYCATDELDSWWYEYEYWGQGTQVTVSS”, the “polyreactivity (PSR sort gate)” value was “low polyreactivity”. Under “QVQLVESGGGLVQAGGSLRLSCAASGSTFRHYAMGWYRQAPGKERELVAAISSRGGSTYYADSVKGRFTISRDNAKNTVYLQMNSLKPEDTAVYYCNVVGYQRPSYRHMDYWGQGTQVTVSS” stands “high polyreactivity”; under “QVQLVESGGGLVQAGGSLRLSCAASGFIFRSYAMGWYRQAPGKERELVAAITRSGGSTYYADSVKGRFTISRDNAKNTDYLQMNSLKPEDTAVYYCATRRYWYYILDYWGQGTQVTVSS”, “high polyreactivity”; under “QVQLVESGRGLVQAGGILRLSCDASGRTIYFNRMGWYRHAPGKEREFVAAINRSGGSTYYADSVKGRFTISRDNAKNTVYLQMNSLKPEDTAVYYCAADGVIFEYDYWGQGTQVTVSS”, “low polyreactivity”. Consider “QVQLVESGGGLVQAGGSLRLSCAASGRTFVQNAMGWYRQAPGKERELVASIRYRDGSTYYADSVKGRFTISRDNAKNTVYLQMNSLKPEDTAVYYCAVRVTSDYYASRYYYWGQGSQVTVSS”, for which the “polyreactivity (PSR sort gate)” value is “high polyreactivity”. The value for “QVQLVESGGGLVQAGGSLRLSGAASGFIFAAYAMGWYRQAPGKERELVASISNGGGSTYYADSVKGRYTISRDNAKNTVYLQMNSQNPEVSAVYYCNARQYYAVTRKYYVRLDYWGQGTQVTVES” was “high polyreactivity”; that for “QVRLVESGGGLDQAGGSLPLSCAASGRTFEPNAMGWYRQAPGKERELVAAITSAGITHYADSVKGRFTISRDNAKNTVYLQMNSLKPEDTAVYYCRLQTGIIDRLRRYNYWGQGTQVTVSS” was “high polyreactivity”.

In the case of “QVQLVESGGGLVQAGGSLRLSCAASGRTFAGNAMGWYRQAPGKERELVAAIRRTGGRTYYADSVKGRFTISRDNAKNTVYLQMNSLKPEETAVYYCNAVNKPYTREYGYDYWGQGTQVTGSS”, the “polyreactivity (PSR sort gate)” value is reported as “high polyreactivity”.

With “QVQLVESGGGLVQAGGSLRLSCAPSGSTFDIYAMGWYRQAPGKERELVARISSGGGRTYYADSVKGRFTISRDNAKNTVYLQMNSLKPEDTAVYYCARDNEPDYYSYPYDYWGQGTQVTVSS”, the “polyreactivity (PSR sort gate)” value was “low polyreactivity”. In the case of “QVQLVESGGGLVQAGGSLRLSCAAYGITFPVNAMGWYRQAPGKERELVAGIYFSGDSTYYADSVKGRFTISRDNAKNTVYLQMKSLKPEDTAVYYCAAEVWAFVYYFEYSTMYYWGHGTQVTVSS”, the “polyreactivity (PSR sort gate)” value is on record as “low polyreactivity”. The value for “QVQLVESGGGLVQAGGSLRLSCAASGGIFAPYAMGWYRQAPGKERELVADITSEGGSTYYADSVKGRFTISRDIEKNTVYLQMNSLKPEDTAVYYCAAEQRYCWWGHPGDYWGKGTQVTVSS” was “low polyreactivity”; that for “QVQLVDSGGGLVQAGGSLRLSCAASGITFYYYAMGRYIQAPGKERELVAAISWSGGSTYYADSVKGRFTISRDNAKNTVYLPMNSLIPEDTAVYYCAATPYQYHDGGYWGQGTQVTVSS” was “high polyreactivity”; that for “QVQRVESGGGLVQAGGSLRLSCAASGFIFARNAMGWNRPAPGKERELVAAINQSGGITRYADSVKGRFTISRDNAKNTVYLQMNSLKPEDTAVYYCATPLYVRYDYWGQGSQVTVSS” was “high polyreactivity”. As to “QVQLVESGGGLVQAGGSLRLSCADSGYIFEVYAMGWYRPAPGKERELVAAIDYSDGTTYYADSVKGRFTISRDNAKNTVYLQMNSLKPEDTAVYYCAADFPGQHYDYWGQGTQVTVSS”, the “polyreactivity (PSR sort gate)” value is listed as “low polyreactivity”. The value for “QVQLVESGGGLVQAGGSLRLSCAASGTTFAVYTMGWYRQAPGKERELSTSYADSVKGRFTISRDNAKNTVYLQMNILKQEDTAVYYCNRDFYEFDSNSYRFDYWGQGTQVTVSS” was “low polyreactivity”. Under “QVQLVDSGGGLVQAGGSLRLSCAASGRIFRGYAMGWYRQAPGKERELVAAINRGSSTYYADSVKGRFTISRDNAKNTVYLQMNSLKPEDTAVYYCAVKGYLPYTGIFDYWGQGTQVTVSS” stands “high polyreactivity”; under “QVQLVESGGGLVQAGGSLRLICAASGFNLEYYSMGWYRQATGKERELVAVITESDGNTYYPDSVKGRFTISRDTAKNTVYLQMYSLKPEDTALYYCAAPYSFIQGGIRRGYHGYVYWGQGTQVTVSS”, “low polyreactivity”.
